Test results taken from publication PMC5923235.

Tests used:
[1] = target: NTS1 A90C^1.58 (TM1) in the Cys-depleted background of rat neurotensin receptor 1 (rat) (UniProt P20789); assay: FRET or BRET; ensemble FRET; A488- and A555-labelled NTS1 reconstituted together 1:1 in brain polar lipid liposomes; apo; ~1 μM receptor; 50 mM Tris-HCl pH 7.4, 50 mM NaCl, 1 mM EDTA, 10% glycerol; room temperature; Ecor corrected for donor-to-acceptor ratio
[2] = target: NTS1 A90C^1.58 (TM1) in the Cys-depleted background of rat neurotensin receptor 1 (rat) (UniProt P20789); assay: FRET or BRET; ensemble FRET as for the apo samples, with 5 μM agonist neurotensin (+NT); A488- and A555-labelled NTS1 1:1 in brain polar lipid liposomes; room temperature
[3] = target: NTS1 A261C^5.52 (TM5) in the Cys-depleted background of rat neurotensin receptor 1 (rat) (UniProt P20789); assay: FRET or BRET; ensemble FRET; A488- and A555-labelled NTS1 reconstituted together 1:1 in brain polar lipid liposomes; apo; ~1 μM receptor; 50 mM Tris-HCl pH 7.4, 50 mM NaCl, 1 mM EDTA, 10% glycerol; room temperature; Ecor corrected for donor-to-acceptor ratio
[4] = target: NTS1 A261C^5.52 (TM5) in the Cys-depleted background of rat neurotensin receptor 1 (rat) (UniProt P20789); assay: FRET or BRET; ensemble FRET as for the apo samples, with 5 μM agonist neurotensin (+NT); A488- and A555-labelled NTS1 1:1 in brain polar lipid liposomes; room temperature
[5] = target: NTS1 L371C^7.55 (TM7) in the Cys-depleted background of rat neurotensin receptor 1 (rat) (UniProt P20789); assay: FRET or BRET; ensemble FRET; A488- and A555-labelled NTS1 reconstituted together 1:1 in brain polar lipid liposomes; apo; ~1 μM receptor; 50 mM Tris-HCl pH 7.4, 50 mM NaCl, 1 mM EDTA, 10% glycerol; room temperature; Ecor corrected for donor-to-acceptor ratio
[6] = target: NTS1 L371C^7.55 (TM7) in the Cys-depleted background of rat neurotensin receptor 1 (rat) (UniProt P20789); assay: FRET or BRET; ensemble FRET as for the apo samples, with 5 μM agonist neurotensin (+NT); A488- and A555-labelled NTS1 1:1 in brain polar lipid liposomes; room temperature
[7] = target: NTS1 Q378C^8.52 (H8) in the Cys-depleted background of rat neurotensin receptor 1 (rat) (UniProt P20789); assay: FRET or BRET; ensemble FRET; A488- and A555-labelled NTS1 reconstituted together 1:1 in brain polar lipid liposomes; apo; ~1 μM receptor; 50 mM Tris-HCl pH 7.4, 50 mM NaCl, 1 mM EDTA, 10% glycerol; room temperature; Ecor corrected for donor-to-acceptor ratio
[8] = target: NTS1 Q378C^8.52 (H8) in the Cys-depleted background of rat neurotensin receptor 1 (rat) (UniProt P20789); assay: FRET or BRET; ensemble FRET as for the apo samples, with 5 μM agonist neurotensin (+NT); A488- and A555-labelled NTS1 1:1 in brain polar lipid liposomes; room temperature
[9] = target: NTS1 S(C)172C^3.55 (TM3, re-introduced native Cys) in the Cys-depleted background of rat neurotensin receptor 1 (rat) (UniProt P20789); assay: FRET or BRET; ensemble FRET; A488- and A555-labelled NTS1 reconstituted together 1:1 in brain polar lipid liposomes; apo; ~1 μM receptor; 50 mM Tris-HCl pH 7.4, 50 mM NaCl, 1 mM EDTA, 10% glycerol; room temperature; Ecor corrected for donor-to-acceptor ratio
[10] = target: NTS1 S(C)172C^3.55 (TM3, re-introduced native Cys) in the Cys-depleted background of rat neurotensin receptor 1 (rat) (UniProt P20789); assay: FRET or BRET; ensemble FRET as for the apo samples, with 5 μM agonist neurotensin (+NT); A488- and A555-labelled NTS1 1:1 in brain polar lipid liposomes; room temperature
[11] = target: NTS1 T186C^4.42 (TM4) in the Cys-depleted background of rat neurotensin receptor 1 (rat) (UniProt P20789); assay: FRET or BRET; ensemble FRET; A488- and A555-labelled NTS1 reconstituted together 1:1 in brain polar lipid liposomes; apo; ~1 μM receptor; 50 mM Tris-HCl pH 7.4, 50 mM NaCl, 1 mM EDTA, 10% glycerol; room temperature; Ecor corrected for donor-to-acceptor ratio
[12] = target: NTS1 T186C^4.42 (TM4) in the Cys-depleted background of rat neurotensin receptor 1 (rat) (UniProt P20789); assay: FRET or BRET; single-molecule FRET by TIRF microscopy; Cy3- and Cy5-labelled NTS1 T186C in DPhPC droplet interface bilayers, 100:405:45 Cy3:Cy5:unlabelled, receptor density 0.43 μm^-2; 50 mM NaCl, 1 mM EDTA, 50 mM Tris-HCl pH 7.4; 30 ms frames; constants are of dimer to monomers in two dimensions
[13] = target: NTS1 T186C^4.42 (TM4) in the Cys-depleted background of rat neurotensin receptor 1 (rat) (UniProt P20789); assay: FRET or BRET; ensemble FRET as for the apo samples, with 5 μM agonist neurotensin (+NT); A488- and A555-labelled NTS1 1:1 in brain polar lipid liposomes; room temperature
[14] = target: NTS1 V307C^6.34 (TM6) in the Cys-depleted background of rat neurotensin receptor 1 (rat) (UniProt P20789); assay: FRET or BRET; ensemble FRET; A488- and A555-labelled NTS1 reconstituted together 1:1 in brain polar lipid liposomes; apo; ~1 μM receptor; 50 mM Tris-HCl pH 7.4, 50 mM NaCl, 1 mM EDTA, 10% glycerol; room temperature; Ecor corrected for donor-to-acceptor ratio
[15] = target: NTS1 V307C^6.34 (TM6) in the Cys-depleted background of rat neurotensin receptor 1 (rat) (UniProt P20789); assay: FRET or BRET; ensemble FRET as for the apo samples, with 5 μM agonist neurotensin (+NT); A488- and A555-labelled NTS1 1:1 in brain polar lipid liposomes; room temperature
[16] = target: NTS1 Y104C^2.41 (TM2) in the Cys-depleted background of rat neurotensin receptor 1 (rat) (UniProt P20789); assay: FRET or BRET; ensemble FRET; A488- and A555-labelled NTS1 reconstituted together 1:1 in brain polar lipid liposomes; apo; ~1 μM receptor; 50 mM Tris-HCl pH 7.4, 50 mM NaCl, 1 mM EDTA, 10% glycerol; room temperature; Ecor corrected for donor-to-acceptor ratio
[17] = target: NTS1 Y104C^2.41 (TM2) in the Cys-depleted background of rat neurotensin receptor 1 (rat) (UniProt P20789); assay: FRET or BRET; ensemble FRET as for the apo samples, with 5 μM agonist neurotensin (+NT); A488- and A555-labelled NTS1 1:1 in brain polar lipid liposomes; room temperature

NTS1 A90C^1.58 (TM1) in the Cys-depleted background of rat neurotensin receptor 1 (from UniProt P20789 43-424)
Ecor(apo) [1]: 0.73 | Ecor(+NT) [2]: 0.77

NTS1 A261C^5.52 (TM5) in the Cys-depleted background of rat neurotensin receptor 1 (from UniProt P20789 43-424)
Ecor(apo) [3]: 0.98 | Ecor(+NT) [4]: 1.05

NTS1 L371C^7.55 (TM7) in the Cys-depleted background of rat neurotensin receptor 1 (from UniProt P20789 43-424)
Ecor(apo) [5]: 0.68 | Ecor(+NT) [6]: 0.7

NTS1 Q378C^8.52 (H8) in the Cys-depleted background of rat neurotensin receptor 1 (from UniProt P20789 43-424)
Ecor(apo) [7]: 0.89 | Ecor(+NT) [8]: 0.89

NTS1 S(C)172C^3.55 (TM3, re-introduced native Cys) in the Cys-depleted background of rat neurotensin receptor 1 (from UniProt P20789 43-424)
Ecor(apo) [9]: 1.03 | Ecor(+NT) [10]: 1.02

NTS1 T186C^4.42 (TM4) in the Cys-depleted background of rat neurotensin receptor 1 (from UniProt P20789 43-424)
Ecor(apo) [11]: 0.77 | dimer half-life t1/2 [12]: 1.2 s | koff [12]: 0.58 s⁻¹ | percent of receptors as dimers at 0.43 molecules per μm^2 [12]: 9.8% | stoichiometry N [12]: 2 | Ecor(+NT) [13]: 0.78

NTS1 V307C^6.34 (TM6) in the Cys-depleted background of rat neurotensin receptor 1 (from UniProt P20789 43-424)
Ecor(apo) [14]: 0.99 | Ecor(+NT) [15]: 0.82

NTS1 Y104C^2.41 (TM2) in the Cys-depleted background of rat neurotensin receptor 1 (from UniProt P20789 43-424)
Ecor(apo) [16]: 0.9 | Ecor(+NT) [17]: 0.9
